Results on 1 molecule are retold here after PMC9709061, “HSP90-CDC37-PP5 forms a structural platform for kinase dephosphorylation” (Nature Communications, 2022).

The target in test [1] is T1, HSP90β (human, UniProt P08238 1-724, phosphorylation at Ser226 and Ser255 found by mass spectrometry).
T1 construct: human HSP90β, full length; A 3C protease site lies between protein and tag; no cleavage step is described; Captured on Talon resin during the co-purification; source: co-purified (Talon, Streptactin, Superdex S200); not shown: His8, N-terminal, kept
Put plainly: cryo-EM structure; HSP90–CDC37–BRAF^V600E complex incubated with PP5 D274N, purified by SEC, cross-linked with 1 mM BS3; one sample gave three classes: HCK (3.4 Å), HCK-P open (4.2 Å), HCK-P closed (3.9 Å); PP5 modelled by rigid-body docking. The following applies: both partners purified. (In general: In gel filtration, larger molecules generally elute earlier.)

Test [2] addresses T2, BRAF^V600E (human, UniProt P15056 1-766, V600E, phosphorylated as purified: Ser151, Ser339, Ser365, Thr401, Ser429, Ser432, Ser446, Ser614, Ser675, Ser729, Ser750, Thr753 (mass spectrometry; pSer729 also by western blot)).
T2 construct: human BRAF, full length (84 kDa), oncogenic V600E mutant; A 3C site lies between protein and tag; no cleavage step is described; also called kinase client; not shown: 2xStrep, N-terminal, kept
Described as above. The following applies: both partners purified.

T1 sequence (P08238 whole entry): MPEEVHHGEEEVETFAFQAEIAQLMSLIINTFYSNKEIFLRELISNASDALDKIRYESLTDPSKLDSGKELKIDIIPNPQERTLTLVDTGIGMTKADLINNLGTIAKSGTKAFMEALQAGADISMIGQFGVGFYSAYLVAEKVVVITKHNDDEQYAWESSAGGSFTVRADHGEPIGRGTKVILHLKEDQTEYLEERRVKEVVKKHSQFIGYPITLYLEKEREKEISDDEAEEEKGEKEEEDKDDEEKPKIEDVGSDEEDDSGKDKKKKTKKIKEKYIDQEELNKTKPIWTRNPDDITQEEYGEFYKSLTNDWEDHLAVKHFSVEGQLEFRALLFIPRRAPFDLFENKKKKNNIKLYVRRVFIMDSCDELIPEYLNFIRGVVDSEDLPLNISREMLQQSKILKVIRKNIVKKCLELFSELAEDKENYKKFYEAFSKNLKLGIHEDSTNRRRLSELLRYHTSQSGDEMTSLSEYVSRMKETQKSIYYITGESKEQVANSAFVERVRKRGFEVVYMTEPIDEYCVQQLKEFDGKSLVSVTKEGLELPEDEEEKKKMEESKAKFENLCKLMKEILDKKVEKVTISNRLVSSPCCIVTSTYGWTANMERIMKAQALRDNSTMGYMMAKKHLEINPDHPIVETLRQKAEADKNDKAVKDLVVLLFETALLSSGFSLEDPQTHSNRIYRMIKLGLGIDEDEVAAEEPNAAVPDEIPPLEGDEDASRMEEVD
T2 sequence (P15056 whole entry V600E): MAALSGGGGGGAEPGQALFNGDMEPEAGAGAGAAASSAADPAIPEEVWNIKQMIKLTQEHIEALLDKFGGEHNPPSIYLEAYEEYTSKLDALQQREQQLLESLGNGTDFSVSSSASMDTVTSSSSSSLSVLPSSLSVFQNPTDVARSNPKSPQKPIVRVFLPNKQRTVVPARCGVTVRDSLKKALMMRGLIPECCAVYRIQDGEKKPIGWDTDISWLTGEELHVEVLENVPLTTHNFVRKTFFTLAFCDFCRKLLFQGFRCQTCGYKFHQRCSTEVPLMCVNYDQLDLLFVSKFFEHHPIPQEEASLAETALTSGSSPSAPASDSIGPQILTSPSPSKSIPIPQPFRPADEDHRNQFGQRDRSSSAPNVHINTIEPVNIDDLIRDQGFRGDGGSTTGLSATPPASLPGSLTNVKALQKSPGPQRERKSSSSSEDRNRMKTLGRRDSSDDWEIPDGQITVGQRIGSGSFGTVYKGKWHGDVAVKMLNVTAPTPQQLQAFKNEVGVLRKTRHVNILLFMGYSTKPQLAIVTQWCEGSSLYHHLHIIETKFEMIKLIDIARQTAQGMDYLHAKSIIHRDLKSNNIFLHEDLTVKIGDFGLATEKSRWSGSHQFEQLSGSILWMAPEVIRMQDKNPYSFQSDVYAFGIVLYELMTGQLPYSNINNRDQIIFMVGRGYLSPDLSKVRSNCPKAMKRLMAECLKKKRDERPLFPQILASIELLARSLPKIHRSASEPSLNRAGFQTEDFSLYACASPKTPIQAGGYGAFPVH

B1: PP5 D274N (enzyme, human, UniProt P53041 16-499, looked up)
chain: RDEPPADGALKRAEELKTQANDYFKAKDYENAIKFYSQAIELNPSNAIYYGNRSLAYLRTECYGYALGDATRAIELDKKYIKGYYRRAASNMALGKFRAALRDYETVVKVKPHDKDAKMKYQECNKIVKQKAFERAIAGDEHKRSVVDSLDIESMTIEDEYSGPKLEDGKVTISFMKELMQWYKDQKKLHRKCAYQILVQVKEVLSKLSTLVETTLKETEKITVCGDTHGQFYDLLNIFELNGLPSETNPYIFNGDFVNRGSFSVEVILTLFGFKLLYPDHFHLLRGNHETDNMNQIYGFEGEVKAKYTAQMYELFSEVFEWLPLAQCINGKVLIMHGGLFSEDGVTLDDIRKIERNRQPPDSGPMCDLLWSDPQPQNGRSISKRGVSCQFGPDVTKAFLEENNLDYIIRSHEVKAEGYEVAHGGRCVTVFSAPNYCDQMGNKASYIHLQGSDLRPQFHQFTAVPHPNVKPMAYANTLLQLGMM
notes: human PP5 (serine/threonine protein phosphatase 5), residues 16-499, D274N; also called catalytically dead PP5
In the case of B1, the binding result in test [1] and in test [2] was “binds” throughout.
